Biological target: the molecule itself
Experiment: cryo-EM structure

B1: Erwinia ligand-gated ion channel (ELIC), wild type (natural protein)
chain: APADNAADARPVDVSVSIFINKIYGVNTLEQTYKVDGYIVAQWTGKPRKTPGDKPLIVENTQIERWINNGLWVPALEFINVVGSPDTGNKRLMLFPDGRVIYNARFLGSFSNDMDFRLFPFDRQQFVLELEPFSYNNQQLRFSDIQVYTENIDNEEIDEWWIRKASTHISDIRYDHLSSVQPNQNEFSRITVRIDAVRNPSYYLWSFILPLGLIIAASWSVFWLESFSERLQTSFTLMLTVVAYAFYTSNILPRLPYTTVIDQMIIAGYGSIFAAILLIIFAHHRQAMGVEDDLLIQRCRLAFPLGFLAIGCVLVIRGITL
stoichiometry N: 5

From paper doi:10.1101/2022.11.20.517256 (bioRxiv, 2022)
